From paper PMC12019173, “Liganded magnetic nanoparticles for magnetic resonance imaging of α-synuclein” (NPJ Parkinson's Disease, 2025)
No end group written: not given here.

Tests used:
Conditions in all cases: both partners purified
[1] = biological target: T1, recombinant α-synuclein fibrils (human, UniProt P37840 1-140); experiment: SPR; α-syn fibrils on the SPR chip, LMNPs flowed over; LMNPs would not dissociate, no Kd calculated
[2] = biological target: DLB brain-derived α-synuclein fibrils (human (endogenous in brain tissue), UniProt P37840 1-140); experiment: negative-stain transmission electron microscopy; brain-derived (sarkosyl-insoluble) fibrils mixed with R8-LMNPs (3 μg/mL), 4 °C overnight, 2% uranyl acetate
[3] = biological target: MSA brain-derived α-synuclein fibrils (human (endogenous in brain tissue), UniProt P37840 1-140); experiment: as above
[4] = biological target: T1, recombinant α-synuclein fibrils; experiment: SPR; short, sonicated α-syn fibrils immobilised on a CM5 chip, BiaCore T200; peptides 300 nM to 10 μM in PBS; steady state analysis, 1:1 binding model; apparent Kd

B1: 24mer-liganded magnetic nanoparticles (other)
peptide: GAVVWGVTAVKKGRKKRRQRRRPQ
modifications: also: covalently coupled to amine-functionalized dextran-coated iron oxide nanoparticle
notes: two lysine linker; cell penetrating peptide; Multivalent; also called 24mer-LMNPs
binding result [1]: binds

B2: R8-liganded magnetic nanoparticles (other)
peptide: RVGGARVWGVRKKGRKKRRQRRRPQ
modifications: also: covalently coupled to amine-functionalized dextran-coated iron oxide nanoparticle
notes: two-lysine linker; cell penetrating peptide; Multiple R8 ligands on each nanoparticle (multivalent, avidity); also called R8-LMNPs; R8-LMNP
binding result [1]: binds
binding result [2]: binds
binding result [3]: binds

B3: R8 (designed binder)
peptide: RVGGARVWGVRKKGRKKRRQRRRPQ
notes: two-lysine linker; cell penetrating peptide (the methods call it the Tat peptide; detected with an anti-HIV-1 tat antibody); 25 residues; also called R8 peptide; source: synthetic peptide (Genscript or LifeTein)
Kd [4]: 470 nM

B4: 24mer (designed binder)
peptide: GAVVWGVTAVKKGRKKRRQRRRPQ
notes: two lysine linker; cell penetrating peptide; 24 residues; also called 24-residue peptide
Kd [4]: 3700 nM
